B1: BSPSMA/CD3-200 (bispecific antibody)
chain 1: QVQLVESGGGVVQPGRSLRLSCAASGFTFSSYGMHWVRQAPGKGLEWVAVISYAGNNKYYADSVKGRFTVSRDNSKKTLYLQMNSLRSEDTAVYYCAKDSYYDFLTDPDVLDIWGQGTMVTVSS
chain 2: EVQLVESGGGLVQPGRSLRLSCAASGFTFDDYAMHWVRQAPGKGLEWVSGISWNSGSIGYADSVKGRFTISRDNAKNSLYLQMNSLRAEDTALYYCAKDGSGYGYFYYYGMDVWGQGTTVTVSS
chain 3: DIQMTQSPSSLSASVGDSVTITCRASQSINNYLNWYQQKPGKAPKLLIYTASSLLSGVPSRFSGSGSGTDFTLTISGLHPEDFATYFCQQSFSTPPITFGQGTRLDIK
B2: BSPSMA/CD3-300 (bispecific antibody)
chain 1: QVQLVESGGGVVQPGRSLRLSCAASGFTFSSYGMHWVRQAPGKGLEWVAVISYAGNNKYYADSVKGRFTVSRDNSKKTLYLQMNSLRSEDTAVYYCAKDSYYDFLTDPDVLDIWGQGTMVTVSS
chain 2: EVQLVESGGGLVQPGRSLRLSCAASGFTFDDYSMHWVRQAPGKGLEWVSGISWNSGSIGYADSVKGRFTISRDNAKNSLYLQMNSLRAEDTALYYCAKDGSGYGYFYYYGMDVWGQGTTVTVSS
chain 3: DIQMTQSPSSLSASVGDSVTITCRASQSINNYLNWYQQKPGKAPKLLIYTASSLLSGVPSRFSGSGSGTDFTLTISGLHPEDFATYFCQQSFSTPPITFGQGTRLDIK
B3: BSPSMA/CD3-800 (bispecific antibody)
chain 1: QVQLVESGGGVVQPGRSLRLSCAASGFTFSSYGMHWVRQAPGKGLEWVAVISYAGNNKYYADSVKGRFTVSRDNSKKTLYLQMNSLRSEDTAVYYCAKDSYYDFLTDPDVLDIWGQGTMVTVSS
chain 2: EVQLVESGGGLVQPGRSLRLSCAASGFTFDDYSMHWVRQAPGKGLEWVSGISWNSGSIGYADSVKGRFTISRDNAKNSLYLQMNSLRAEDTALYYCAKYGSGYGKFYHYGLDVWGQGTTVTVSS
chain 3: DIQMTQSPSSLSASVGDSVTITCRASQSINNYLNWYQQKPGKAPKLLIYTASSLLSGVPSRFSGSGSGTDFTLTISGLHPEDFATYFCQQSFSTPPITFGQGTRLDIK
B4: BSPSMA/CD3-005 (bispecific antibody)
chain 1: QVQLVESGGGVVQPGRSLRLSCAASGFTFSSYGMHWVRQAPGKGLEWVAVISYAGNNKYYADSVKGRFTVSRDNSKKTLYLQMNSLRSEDTAVYYCAKDSYYDFLTDPDVLDIWGQGTMVTVSS
chain 2: EVQLVESGGGLVQPGRSLRLSCAASGFTFDDYSMHWVRQAPGKGLEWVSGISWNSGSIGYADSVKGRFTISRDNAKNSLYLQMNSLRAEDTALYYCAKYGSGYGKFYYYGMDVWGQGTTVTVSS
chain 3: DIQMTQSPSSLSASVGDSVTITCRASQSINNYLNWYQQKPGKAPKLLIYTASSLLSGVPSRFSGSGSGTDFTLTISGLHPEDFATYFCQQSFSTPPITFGQGTRLDIK
B5: BSPSMA/CD3-1000 (bispecific antibody)
chain 1: QVQLVESGGGVVQPGRSLRLSCAASGFTFSSYGMHWVRQAPGKGLEWVAVISYAGNNKYYADSVKGRFTVSRDNSKKTLYLQMNSLRSEDTAVYYCAKDSYYDFLTDPDVLDIWGQGTMVTVSS
chain 2: EVQLVESGGGLVQPGRSLRLSCAASGFTFDDYSMHWVRQAPGKGLEWVSGISWNSGSKGYADSVKGRFTISRDNAKNSLYLQMNSLRAEDTALYYCAKYGSGYGKFYYYGLDVWGQGTTVTVSS
chain 3: DIQMTQSPSSLSASVGDSVTITCRASQSINNYLNWYQQKPGKAPKLLIYTASSLLSGVPSRFSGSGSGTDFTLTISGLHPEDFATYFCQQSFSTPPITFGQGTRLDIK
B6: BSPSMA/CD3-900 (bispecific antibody)
chain 1: QVQLVESGGGVVQPGRSLRLSCAASGFTFSSYGMHWVRQAPGKGLEWVAVISYAGNNKYYADSVKGRFTVSRDNSKKTLYLQMNSLRSEDTAVYYCAKDSYYDFLTDPDVLDIWGQGTMVTVSS
chain 2: EVQLVESGGGLVQPGRSLRLSCAASGFTFDDYSMHWVRQAPGKGLEWVSGISWNSGSKGYADSVKGRFTISRDNAKNSLYLQMNSLRAEDTALYYCAKDGSGYGKFYHYGLDVWGQGTTVTVSS
chain 3: DIQMTQSPSSLSASVGDSVTITCRASQSINNYLNWYQQKPGKAPKLLIYTASSLLSGVPSRFSGSGSGTDFTLTISGLHPEDFATYFCQQSFSTPPITFGQGTRLDIK
B7: BSPSMA/CD3-1700 (bispecific antibody)
chain 1: QVQLVESGGGVVQPGRSLRLSCAASGFTFSSYGMHWVRQAPGKGLEWVAVISYAGNNKYYADSVKGRFTVSRDNSKKTLYLQMNSLRSEDTAVYYCAKDSYYDFLTDPDVLDIWGQGTMVTVSS
chain 2: EVQLVESGGGLVQPGRSLRLSCAASGFTFDDYSMHWVRQAPGKGLEWVSGISWNSGSKGYADSVKGRFTISRDNAKNSLYLQMNSLRAEDTALYYCAKYGSGYGKFYYYGMDVWGQGTTVTVSS
chain 3: DIQMTQSPSSLSASVGDSVTITCRASQSINNYLNWYQQKPGKAPKLLIYTASSLLSGVPSRFSGSGSGTDFTLTISGLHPEDFATYFCQQSFSTPPITFGQGTRLDIK
B8: BSPSMA/CD3-1600 (bispecific antibody)
chain 1: QVQLVESGGGVVQPGRSLRLSCAASGFTFSSYGMHWVRQAPGKGLEWVAVISYAGNNKYYADSVKGRFTVSRDNSKKTLYLQMNSLRSEDTAVYYCAKDSYYDFLTDPDVLDIWGQGTMVTVSS
chain 2: EVQLVESGGGLVQPGRSLRLSCAASGFTFDDYSMHWVRQAPGKGLEWVSGISWNSGSKGYADSVKGRFTISRDNAKNSLYLQMNSLRAEDTALYYCAKDGSGYGKFYHYGMDVWGQGTTVTVSS
chain 3: DIQMTQSPSSLSASVGDSVTITCRASQSINNYLNWYQQKPGKAPKLLIYTASSLLSGVPSRFSGSGSGTDFTLTISGLHPEDFATYFCQQSFSTPPITFGQGTRLDIK
B9: BSPSMA/CD3-2100 (bispecific antibody)
chain 1: QVQLVESGGGVVQPGRSLRLSCAASGFTFSSYGMHWVRQAPGKGLEWVAVISYAGNNKYYADSVKGRFTVSRDNSKKTLYLQMNSLRSEDTAVYYCAKDSYYDFLTDPDVLDIWGQGTMVTVSS
chain 2: EVQLVESGGGLVQPGRSLRLSCAASGFTFDDYSMHWVRQAPGKGLEWVSGISWNSGSKGYADSVKGRFTISRDNAKNSLYLQMNSLRAEDTALYYCAKDGSGYGKFYYYGMDVWGQGTTVTVSS
chain 3: DIQMTQSPSSLSASVGDSVTITCRASQSINNYLNWYQQKPGKAPKLLIYTASSLLSGVPSRFSGSGSGTDFTLTISGLHPEDFATYFCQQSFSTPPITFGQGTRLDIK
B10: BSPSMA/CD3-1100 (bispecific antibody)
chain 1: QVQLVESGGGVVQPGRSLRLSCAASGFTFSSYGMHWVRQAPGKGLEWVAVISYAGNNKYYADSVKGRFTVSRDNSKKTLYLQMNSLRSEDTAVYYCAKDSYYDFLTDPDVLDIWGQGTMVTVSS
chain 2: EVQLVESGGGLVQPGRSLRLSCAASGFTFDDYSMHWVRQAPGKGLEWVSGISWNSGSKGYADSVKGRFTISRDNAKNSLYLQMNSLRAEDTALYYCAKYGSGYGKFYHYGMDVWGQGTTVTVSS
chain 3: DIQMTQSPSSLSASVGDSVTITCRASQSINNYLNWYQQKPGKAPKLLIYTASSLLSGVPSRFSGSGSGTDFTLTISGLHPEDFATYFCQQSFSTPPITFGQGTRLDIK
B11: BSPSMA/CD3-1900 (bispecific antibody)
chain 1: QVQLVESGGGVVQPGRSLRLSCAASGFTFSSYGMHWVRQAPGKGLEWVAVISYAGNNKYYADSVKGRFTVSRDNSKKTLYLQMNSLRSEDTAVYYCAKDSYYDFLTDPDVLDIWGQGTMVTVSS
chain 2: EVQLVESGGGLVQPGRSLRLSCAASGFTFDDYSMHWVRQAPGKGLEWVSGISWNSGSIGYADSVKGRFTISRDNAKNSLYLQMNSLRAEDTALYYCAKDGSGYGKFYHYGMDVWGQGTTVTVSS
chain 3: DIQMTQSPSSLSASVGDSVTITCRASQSINNYLNWYQQKPGKAPKLLIYTASSLLSGVPSRFSGSGSGTDFTLTISGLHPEDFATYFCQQSFSTPPITFGQGTRLDIK
B12: BSPSMA/CD3-1500 (bispecific antibody)
chain 1: QVQLVESGGGVVQPGRSLRLSCAASGFTFSSYGMHWVRQAPGKGLEWVAVISYAGNNKYYADSVKGRFTVSRDNSKKTLYLQMNSLRSEDTAVYYCAKDSYYDFLTDPDVLDIWGQGTMVTVSS
chain 2: EVQLVESGGGLVQPGRSLRLSCAASGFTFDDYSMHWVRQAPGKGLEWVSGISWNSGSKGYADSVKGRFTISRDNAKNSLYLQMNSLRAEDTALYYCAKDGSGYGKFYYYGLDVWGQGTTVTVSS
chain 3: DIQMTQSPSSLSASVGDSVTITCRASQSINNYLNWYQQKPGKAPKLLIYTASSLLSGVPSRFSGSGSGTDFTLTISGLHPEDFATYFCQQSFSTPPITFGQGTRLDIK
B13: BSPSMA/CD3-1200 (bispecific antibody)
chain 1: QVQLVESGGGVVQPGRSLRLSCAASGFTFSSYGMHWVRQAPGKGLEWVAVISYAGNNKYYADSVKGRFTVSRDNSKKTLYLQMNSLRSEDTAVYYCAKDSYYDFLTDPDVLDIWGQGTMVTVSS
chain 2: EVQLVESGGGLVQPGRSLRLSCAASGFTFDDYSMHWVRQAPGKGLEWVSGISWNSGSIGYADSVKGRFTISRDNAKNSLYLQMNSLRAEDTALYYCAKDGSGYGKFYHYGLDVWGQGTTVTVSS
chain 3: DIQMTQSPSSLSASVGDSVTITCRASQSINNYLNWYQQKPGKAPKLLIYTASSLLSGVPSRFSGSGSGTDFTLTISGLHPEDFATYFCQQSFSTPPITFGQGTRLDIK
B14: BSPSMA/CD3-1400 (bispecific antibody)
chain 1: QVQLVESGGGVVQPGRSLRLSCAASGFTFSSYGMHWVRQAPGKGLEWVAVISYAGNNKYYADSVKGRFTVSRDNSKKTLYLQMNSLRSEDTAVYYCAKDSYYDFLTDPDVLDIWGQGTMVTVSS
chain 2: EVQLVESGGGLVQPGRSLRLSCAASGFTFDDYSMHWVRQAPGKGLEWVSGISWNSGSIGYADSVKGRFTISRDNAKNSLYLQMNSLRAEDTALYYCAKYGSGYGKFYHYGMDVWGQGTTVTVSS
chain 3: DIQMTQSPSSLSASVGDSVTITCRASQSINNYLNWYQQKPGKAPKLLIYTASSLLSGVPSRFSGSGSGTDFTLTISGLHPEDFATYFCQQSFSTPPITFGQGTRLDIK
B15: BSPSMA/CD3-1300 (bispecific antibody)
chain 1: QVQLVESGGGVVQPGRSLRLSCAASGFTFSSYGMHWVRQAPGKGLEWVAVISYAGNNKYYADSVKGRFTVSRDNSKKTLYLQMNSLRSEDTAVYYCAKDSYYDFLTDPDVLDIWGQGTMVTVSS
chain 2: EVQLVESGGGLVQPGRSLRLSCAASGFTFDDYSMHWVRQAPGKGLEWVSGISWNSGSIGYADSVKGRFTISRDNAKNSLYLQMNSLRAEDTALYYCAKYGSGYGKFYYYGLDVWGQGTTVTVSS
chain 3: DIQMTQSPSSLSASVGDSVTITCRASQSINNYLNWYQQKPGKAPKLLIYTASSLLSGVPSRFSGSGSGTDFTLTISGLHPEDFATYFCQQSFSTPPITFGQGTRLDIK

Each binder was assayed against T1, soluble heterodimeric hCD3ε/δ.mFc protein (human) (assay: SPR 37 C, antigen-capture format).
T1 construct: also called soluble human CD3; human CD3 heterodimeric protein
T1 sequence (P07766 23-126, stated change not applied, chain 1 of 2): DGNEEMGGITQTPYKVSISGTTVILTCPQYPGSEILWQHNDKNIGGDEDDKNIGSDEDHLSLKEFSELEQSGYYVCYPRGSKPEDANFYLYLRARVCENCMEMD
T1 sequence (P04234 22-105, stated change not applied, chain 2 of 2, further chain): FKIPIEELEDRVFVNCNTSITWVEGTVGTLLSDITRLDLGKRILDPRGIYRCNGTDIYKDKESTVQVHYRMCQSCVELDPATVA
A Kd of over 500 nM was found for B1 in this work.
A Kd of over 500 nM was found for B2 in this work.

Target: T1, soluble heterodimeric hCD3ε/δ.mFc …
Experiment: SPR 37 C, antigen-capture format
Remark: another data set of the same source
A T½ of 10 min was found for B3 in this work.
A T½ of 2 min was found for B4 in this work.
A T½ of 1.8 min was found for B5 in this work.
A T½ of 2.3 min was found for B6 in this work.
A T½ of 3.8 min was found for B7 in this work.
A T½ of 4.7 min was found for B8 in this work.
A T½ of 4.9 min was found for B9 in this work.
A T½ of 11.3 min was found for B10 in this work.
A T½ of 2.3 min was found for B11 in this work.
A T½ of 1.9 min was found for B12 in this work.
A T½ of 4.7 min was found for B13 in this work.
A T½ of 3.5 min was found for B14 in this work.
A T½ of 4.7 min was found for B15 in this work.

Reference: patent publication US20210253701A1 (Regeneron, published 2021)
